Data as given in article PMC6117352, “Multidomain architecture of estrogen receptor reveals interfacial cross-talk between its DNA-binding and ligand-binding domains” (Nature Communications, 2018).

Columns and labels:
[1] = target: hERαCDE W393A (Homo sapiens, UniProt P03372 181-552, W393A); test: fluorescence anisotropy; E2, TIF2 coactivator peptide; 20 nM DNA; FA: 10 mM CHES pH 9.5, 50 mM KCl, 50 mM NaCl, 4 mM MgCl2, 50 mM arginine, 50 mM glutamic acid, 5 mM TCEP, 5% glycerol, 10 uM ZnCl2, 10 uM E2; 20 nM DNA, 10 min; temperature not stated; conditions: protein: recombinant; tags: His-tag (pMCSG7), removed by TEV; chain copies: 2; label: 5' 6-FAM (strands described as 5'-labeled); blunt, 19 bp as printed (text says 18-bp)
hERαCDE W393A, sequence (P03372 181-552 W393A): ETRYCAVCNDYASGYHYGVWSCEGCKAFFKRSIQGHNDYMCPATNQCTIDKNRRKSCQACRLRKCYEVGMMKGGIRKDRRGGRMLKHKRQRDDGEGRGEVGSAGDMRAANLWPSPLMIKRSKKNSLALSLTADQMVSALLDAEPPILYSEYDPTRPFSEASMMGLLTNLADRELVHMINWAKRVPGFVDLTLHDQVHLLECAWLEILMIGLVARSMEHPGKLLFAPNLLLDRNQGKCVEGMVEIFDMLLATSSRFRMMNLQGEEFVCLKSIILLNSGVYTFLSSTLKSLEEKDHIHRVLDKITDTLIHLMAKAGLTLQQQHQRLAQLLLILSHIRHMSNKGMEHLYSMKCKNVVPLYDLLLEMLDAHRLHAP

[2] = target: hERαCDE Y191H (Homo sapiens, UniProt P03372 181-552, Y191H); test: as above; conditions: protein: recombinant; tags: His-tag (pMCSG7), removed by TEV; chain copies: 2; label: 5' 6-FAM (strands described as 5'-labeled); blunt, 19 bp as printed (text says 18-bp)
[3] = target: hERαCDE WT (Homo sapiens, UniProt P03372 181-552); test: fluorescence anisotropy; E2, TIF2 coactivator peptide; 20 nM DNA; apparent Kd; FA: 10 mM CHES pH 9.5, 50 mM KCl, 50 mM NaCl, 4 mM MgCl2, 50 mM arginine, 50 mM glutamic acid, 5 mM TCEP, 5% glycerol, 10 uM ZnCl2, 10 uM E2; 20 nM DNA, 10 min; temperature not stated; conditions: protein: recombinant; tags: His-tag (pMCSG7), removed by TEV; chain copies: 2; label: 5' 6-FAM (strands described as 5'-labeled); blunt, 19 bp as printed (text says 18-bp)
[4] = target: the molecule itself; test: SEC-SAXS + hydroxyl radical protein footprinting, docked models scored against both data sets; hERα^CDE eluted from Superdex 200 with E2, ERE–DNA and TIF2 peptide; 10 mM CHES pH 9.5, 50 mM NaCl, 50 mM KCl; footprinting at 2 µM protein, pH 9.5

B1: 6-FAM ERE-DNA (dsDNA)
DNA 1: TAGGTCACAGTGACCTGCG
DNA 2: CGCAGGTCACTGTGACCTA
For B1, the Kd [1] was 10.8 nM, the Kd [2] was 3.2 nM and the Kd [3] was 9.2 nM.

B2: human estrogen receptor alpha multidomain segment containing both DBD and LBD (residues E181–P552), hERα^CDE (domain or fragment, UniProt P03372 181-552, looked up)
chain: ETRYCAVCNDYASGYHYGVWSCEGCKAFFKRSIQGHNDYMCPATNQCTIDKNRRKSCQACRLRKCYEVGMMKGGIRKDRRGGRMLKHKRQRDDGEGRGEVGSAGDMRAANLWPSPLMIKRSKKNSLALSLTADQMVSALLDAEPPILYSEYDPTRPFSEASMMGLLTNLADRELVHMINWAKRVPGFVDLTLHDQVHLLECAWLEILMIGLVWRSMEHPGKLLFAPNLLLDRNQGKCVEGMVEIFDMLLATSSRFRMMNLQGEEFVCLKSIILLNSGVYTFLSSTLKSLEEKDHIHRVLDKITDTLIHLMAKAGLTLQQQHQRLAQLLLILSHIRHMSNKGMEHLYSMKCKNVVPLYDLLLEMLDAHRLHAP
notes: Cloned into pMCSG7 and the His-tag removed with TEV protease; In the assays it carried estradiol (E2) and ERE-DNA; also called hERα^CDE–DNA-E2 complex; protein part of hERα^complex; source: E. coli Rosetta2(DE3)pLysS, expressed in the presence of estradiol, purified (TALON resin, TEV cleavage, Superdex 200)
B2: binds [4].
